For one molecule, endotoxin levels results are on record in US20170239346A1, “NOVEL COCAINE HAPTENS AND NANOFIBER-BASED COCAINE VACCINES” (priority 2016, published 2017).

Residues, ends and D or L forms follow the SMILES beside them. *: point of attachment. X1 = COC(=O)[C@H]1[C@@H](OC(=O)c2ccccc2)C[C@@H]2CC[C@H]1N2CCCCC(=O)*

The data set is described as follows: Limulus amebocyte lysate (LAL) chromogenic end point endotoxin assay. To be noted: same volume and concentration used for immunizations.

Consider `COC(=O)[C@H]1[C@@H](OC(=O)c2ccccc2)C[C@@H]2CC[C@H]1N2CCCCC(=O)NCC(=O)NCC(=O)NCC(=O)N[C@@H](Cc1ccccc1)C(=O)N[C@@H](CCCCN)C(=O)N[C@@H](Cc1ccccc1)C(=O)N[C@@H](CCC(=O)O)C(=O)N[C@@H](Cc1ccccc1)C(=O)N[C@@H](CCCCN)C(=O)N[C@@H](Cc1ccccc1)C(=O)N[C@@H](CCC(=O)O)C(N)=O` [CocKFE8] (X1-GGGFKFEFKFE-NH2), for which the endotoxin levels entry is “less than 0.1 EU/mL”.
